Biological target: FcγRI (UniProt P12314)
Test: ELISA, coated protein, soluble FcγRI 2 µg/ml

Chain of UniProt P12314 (P12314 16-288 limits assumed): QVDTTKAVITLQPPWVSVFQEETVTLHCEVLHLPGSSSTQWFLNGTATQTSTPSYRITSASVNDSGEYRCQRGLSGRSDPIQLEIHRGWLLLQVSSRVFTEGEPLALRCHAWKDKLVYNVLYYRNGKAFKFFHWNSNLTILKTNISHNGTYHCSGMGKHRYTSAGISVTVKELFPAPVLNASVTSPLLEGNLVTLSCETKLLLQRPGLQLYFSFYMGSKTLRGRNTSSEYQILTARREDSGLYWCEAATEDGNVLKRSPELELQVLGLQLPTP

FcγRI binding ability relative to hGH-IgG4Fc-wt (fold of hGH-IgG4Fc-wt): 0.5
Substance: hGH-chimeric IgG4 variant: 4 amino acids at the N-terminus of IgG4 Fc CH2 domain replaced with 2 amino acids of IgD CH2 domain (Fc fusion)

Source: patent US20160108105A1
